For assay [1], the target named is recombinant cynomolgus monkey CD3ε/δ heterodimer (cynomolgus monkey) (UniProt Q95LI5). In words: ELISA, coated CD3ε/δ. (In general: ELISA stands for enzyme-linked immunosorbent assay.)
In assay [2] the target is recombinant human CD3ε/δ heterodimer (human) (UniProt P07766). In words: ELISA, coated CD3ε/δ.
Sequence of recombinant human CD3ε/δ heterodimer (human) (P07766 23-126, stated change not applied, chain 1 of 2): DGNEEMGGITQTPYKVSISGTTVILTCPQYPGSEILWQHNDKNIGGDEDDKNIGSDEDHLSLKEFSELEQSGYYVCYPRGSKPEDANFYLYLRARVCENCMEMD
Sequence of recombinant human CD3ε/δ heterodimer (human) (P04234 22-105, stated change not applied, chain 2 of 2, further chain): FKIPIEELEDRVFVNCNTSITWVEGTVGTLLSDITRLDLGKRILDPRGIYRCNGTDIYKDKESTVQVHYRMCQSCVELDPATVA

Sequence of recombinant cynomolgus monkey CD3ε/δ heterodimer (cynomolgus monkey) (Q95LI5 22-117, stated change not applied, chain 1 of 2): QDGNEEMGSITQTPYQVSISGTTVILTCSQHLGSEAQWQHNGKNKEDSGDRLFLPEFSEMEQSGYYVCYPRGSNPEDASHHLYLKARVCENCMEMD
Sequence of recombinant cynomolgus monkey CD3ε/δ heterodimer (cynomolgus monkey) (Q95LI8 22-105, stated change not applied, chain 2 of 2, further chain): as the sequence (P04234 22-105, stated change not applied, chain 2 of 2, further chain) above, with I5V, N15K, I20V, S32T, D33N, I34N, T64A, S74N, V83L counted along it

B1: B01 (antibody, human IgG1, lambda, L234A L235A, V domains shown)
VH: EVQLVESGGGLVQPGGSLKLSCAASGFTFNTYAMNWVRQASGKGLEWVGRIRSKYNNYATYYADSVKDRFTISRDDSKNTLYLQMNSLKTEDTAVYYCVRHGNFGNSYVSWFAYWGQGTLVTVSS
VL: QAVVTQEPSLTVSPGGTVTLTCRSSTGAVTTSNYANWFQQKPGQAPRTLIYGTNKRAPWTPARFSGSLLGGKAALTLSGAQPEDEAEYYCALWYSNLWVFGGGTKLTVLG
B1: the Absorbance (450 nm) in assay [1] came to 0.071; in assay [2] it was 0.097.

B2: B06 (antibody, human IgG1, lambda, L234A L235A, V domains shown)
VH: EVQLVESGGGLVQPGGSLKLSCAASGFTFNTYAMNWVRQASGKGLEWVGRIRSKYNNYATYYADSVKDRFTISRDDSKNTLYLQMNSLKTEDTAVYYCVRHGNFGNSYVSWFAYWGQGTLVTVSS
VL: QAVVTQEPSLTVSPGGTVTLTCRSSTGAVTTSNYANWFQQKPGQAPRGLIYGTNKRAPWTPARFSGSLLGDKAALTLSGAQPEDEAEYYCALWYSNLWVFGGGTKLTVLG
For the molecule B2, the Absorbance (450 nm) in assay [1] worked out at 0.143; in assay [2], 0.138.

B3: B05 (antibody, human IgG1, lambda, L234A L235A, V domains shown)
VH: EVQLVESGGGLVQPGGSLKLSCAASGFTFNTYAMNWVRQASGKGLEWVGRIRSKYNNYATYYADSVKDRFTISRDDSKNTLYLQMNSLKTEDTAVYYCVRHGNFGNSYVSWFAYWGQGTLVTVSS
VL: QAVVTQEPSLTVSPGGTVTLTCRSSTGAVTTSNYANWFQQKPGQAPRGLIYGTNKRAPWTPARFSGSLLGGKAALTLSGAQPEDEAEYYCALWYSNLWVFGGGTKLTVLG
Regarding B3, the Absorbance (450 nm) came to 0.1 in assay [1] and 0.102 in assay [2].

B4: B04 (antibody, human IgG1, lambda, L234A L235A, V domains shown)
VH: EVQLVESGGGLVQPGGSLKLSCAASGFTFNTYAMNWVRQASGKGLEWVGRIRSKYNNYATYYADSVKDRFTISRDDSKNTLYLQMNSLKTEDTAVYYCVRHGNFGNSYVSWFAYWGQGTLVTVSS
VL: QAVVTQEPSLTVSPGGTVTLTCRSSTGAVTTSNYANWFQQKPGQAPRTLIGGTNKRAPWTPARFSGSLLGDKAALTLSGAQPEDEAEYYCALWYSNLWVFGGGTKLTVLG
Take B4: the figures for the Absorbance (450 nm) in assay [1] and in assay [2] were 0.059 and 0.087, respectively.

B5: B09 (antibody, human IgG1, lambda, L234A L235A, V domains shown)
VH: EVQLVESGGGLVQPGGSLKLSCAASGFTFNTYAMNWVRQASGKGLEWVGRIRSKYNNYATYYADSVKDRFTISRDDSKNTLYLQMNSLKTEDTAVYYCVRHGNFGNSYVSWFAYWGQGTLVTVSS
VL: QAVVTQEPSLTVSPGGTVTLTCRSSTGAVTTSNYANWVQQKPGQAPRTLIYGTNKRAPWTPARFSGSLLGGKAALTLSGAQPEDEAEYYCALWYSNLWVFGGGTKLTVLG
On to B5, for which the Absorbance (450 nm) was found to be 0.099 in assay [1] and 0.096 in assay [2].

B6: B02 (antibody, human IgG1, lambda, L234A L235A, V domains shown)
VH: EVQLVESGGGLVQPGGSLKLSCAASGFTFNTYAMNWVRQASGKGLEWVGRIRSKYNNYATYYADSVKDRFTISRDDSKNTLYLQMNSLKTEDTAVYYCVRHGNFGNSYVSWFAYWGQGTLVTVSS
VL: QAVVTQEPSLTVSPGGTVTLTCRSSTGAVTTSNYANWFQQKPGQAPRTLIYGTNKRAPWTPARFSGSLLGDKAALTLSGAQPEDEAEYYCALWYSNLWVFGGGTKLTVLG
With B6, the Absorbance (450 nm) came out at 0.072 in assay [1] and 0.086 in assay [2].

B7: B03 (antibody, human IgG1, lambda, L234A L235A, V domains shown)
VH: EVQLVESGGGLVQPGGSLKLSCAASGFTFNTYAMNWVRQASGKGLEWVGRIRSKYNNYATYYADSVKDRFTISRDDSKNTLYLQMNSLKTEDTAVYYCVRHGNFGNSYVSWFAYWGQGTLVTVSS
VL: QAVVTQEPSLTVSPGGTVTLTCRSSTGAVTTSNYANWFQQKPGQAPRTLIGGTNKRAPWTPARFSGSLLGGKAALTLSGAQPEDEAEYYCALWYSNLWVFGGGTKLTVLG
For B7, the Absorbance (450 nm) was determined as 0.091 in assay [1] and 0.126 in assay [2].
